Molecular target: human alpha-enolase protein (ENO-1) (human) (UniProt P06733)
Assay: cell-based or functional assay

Sequence of UniProt P06733 (P06733 2-434): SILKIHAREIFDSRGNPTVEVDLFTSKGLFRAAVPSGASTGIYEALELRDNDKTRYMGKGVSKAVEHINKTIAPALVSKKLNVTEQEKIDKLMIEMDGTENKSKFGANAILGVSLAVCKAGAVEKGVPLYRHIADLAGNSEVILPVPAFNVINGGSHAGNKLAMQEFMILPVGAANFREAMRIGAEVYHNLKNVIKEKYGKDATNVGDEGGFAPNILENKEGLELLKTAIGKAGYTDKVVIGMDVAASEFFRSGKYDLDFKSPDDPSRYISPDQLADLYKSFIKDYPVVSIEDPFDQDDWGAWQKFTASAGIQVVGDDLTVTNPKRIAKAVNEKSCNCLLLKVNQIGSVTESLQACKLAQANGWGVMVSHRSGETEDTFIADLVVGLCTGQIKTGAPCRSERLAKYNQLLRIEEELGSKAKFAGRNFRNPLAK

HuL001-SMCC-DM1
IC50 of cytotoxicity (CCK-8), A549, IL-6: 11.2 nM | IC50 of cytotoxicity (CCK-8), A549, MCP-1: 12.1 nM | IC50 of cytotoxicity (CCK-8), A549, TGF-β: 8.2 nM | IC50 of cytotoxicity (CCK-8), A549, untreated: 56 nM | IC50 of cytotoxicity (CCK-8), DB, IL-6: 5.8 nM | IC50 of cytotoxicity (CCK-8), DB, MCP-1: 4.1 nM | IC50 of cytotoxicity (CCK-8), DB, TGF-β: 5.1 nM | IC50 of cytotoxicity (CCK-8), DB, untreated: 5.5 nM | IC50 of cytotoxicity (CCK-8), GA-10, IL-6: 26.6 nM | IC50 of cytotoxicity (CCK-8), GA-10, MCP-1: 25.6 nM | IC50 of cytotoxicity (CCK-8), GA-10, TGF-β: 22.8 nM | IC50 of cytotoxicity (CCK-8), GA-10, untreated: 37.8 nM | IC50 of cytotoxicity (CCK-8), HT, IL-6: 6.6 nM | IC50 of cytotoxicity (CCK-8), HT, MCP-1: 7.6 nM | IC50 of cytotoxicity (CCK-8), HT, TGF-β: 6.1 nM | IC50 of cytotoxicity (CCK-8), HT, untreated: 7.3 nM | IC50 of cytotoxicity (CCK-8), MCF-7, IL-6: 38.6 nM | IC50 of cytotoxicity (CCK-8), MCF-7, MCP-1: 36.2 nM | IC50 of cytotoxicity (CCK-8), MCF-7, TGF-β: 53.5 nM | IC50 of cytotoxicity (CCK-8), MCF-7, untreated: 74.9 nM | IC50 of cytotoxicity (CCK-8), MDA-MB-175, IL-6: 45.1 nM | IC50 of cytotoxicity (CCK-8), MDA-MB-175, MCP-1: 40.5 nM | IC50 of cytotoxicity (CCK-8), MDA-MB-175, TGF-β: 38.3 nM | IC50 of cytotoxicity (CCK-8), MDA-MB-175, untreated: 76.4 nM | IC50 of cytotoxicity (CCK-8), MDA-MB-231, IL-6: 34.6 nM | IC50 of cytotoxicity (CCK-8), MDA-MB-231, MCP-1: 22.4 nM | IC50 of cytotoxicity (CCK-8), MDA-MB-231, TGF-β: 24.2 nM | IC50 of cytotoxicity (CCK-8), MDA-MB-231, untreated: 69 nM | IC50 of cytotoxicity (CCK-8), MDA-MB-453, IL-6: 22.8 nM | IC50 of cytotoxicity (CCK-8), MDA-MB-453, MCP-1: 24.7 nM | IC50 of cytotoxicity (CCK-8), MDA-MB-453, TGF-β: 16.6 nM | IC50 of cytotoxicity (CCK-8), MDA-MB-453, untreated: 39.8 nM | IC50 of cytotoxicity (CCK-8), PANC-1, IL-6: 134 nM | IC50 of cytotoxicity (CCK-8), PANC-1, MCP-1: 110 nM | IC50 of cytotoxicity (CCK-8), PANC-1, TGF-β: 116 nM | IC50 of cytotoxicity (CCK-8), PANC-1, untreated: 174 nM | IC50 of cytotoxicity (CCK-8), Raji, IL-6: 17.1 nM | IC50 of cytotoxicity (CCK-8), Raji, MCP-1: 21.7 nM | IC50 of cytotoxicity (CCK-8), Raji, TGF-β: 18.6 nM | IC50 of cytotoxicity (CCK-8), Raji, untreated: 32.2 nM | IC50 of cytotoxicity (CCK-8), SU-DHL-4, IL-6: 8.3 nM | IC50 of cytotoxicity (CCK-8), SU-DHL-4, MCP-1: 7.6 nM | IC50 of cytotoxicity (CCK-8), SU-DHL-4, TGF-β: 7.4 nM | IC50 of cytotoxicity (CCK-8), SU-DHL-4, untreated: 7.65 nM | IC50 of cytotoxicity (CCK-8), Toledo, IL-6: 11.4 nM | IC50 of cytotoxicity (CCK-8), Toledo, MCP-1: 8.1 nM | IC50 of cytotoxicity (CCK-8), Toledo, TGF-β: 9.8 nM | IC50 of cytotoxicity (CCK-8), Toledo, untreated: 8 nM | IC50 of cytotoxicity (CCK-8), U937, IL-6: 7.1 nM | IC50 of cytotoxicity (CCK-8), U937, MCP-1: 9.7 nM | IC50 of cytotoxicity (CCK-8), U937, TGF-β: 7.5 nM | IC50 of cytotoxicity (CCK-8), U937, untreated: 75 nM

Reference: US20240207433A1
